Results reported in patent US20200270347A1.

Key:
Assay in all cases: SPR, TYRP1 ECD-Fc captured with anti-PGLALA antibody, 1:1 Langmuir
[1] = target: Human TYRP1 ECD-Fc(knob)-Avi / Fc(hole) (human) [IgG part: P01857]
[2] = target: Cynomolgus TYRP1 ECD-Fc(knob)-Avi / Fc(hole) (cynomolgus) [IgG part: P01857]
[3] = target: Mouse TYRP1 ECD-Fc(knob)-Avi / Fc(hole) (mouse) [IgG part: P01857]

parental TA99 antibody (Fab) gave a Kd [1] of 0.09 nM, a Kd [2] of 0.12 nM and a Kd [3] of 0.31 nM.
